Test results published in the supplement of paper PMC9170038.

System: MS2 coat protein
Experiment: apparent KD of MS2 coat protein; designed switch direction (-1 OFF switch, 1 ON switch): -1; higher = weaker reporter binding
Summary of the method: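 Designed RNA switches with common flanks were made on Illumina chips by stalled E. coli RNA polymerase. Titration with SNAP-549-labelled MS2 coat protein doubled from 0.7 or 1.5 nM up to 3 µM. Apparent KD is each design's median over clusters after curve-fitting normalised fluorescence.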

[1] = Eterna round: R95, input ligand: FMN 200 uM
[2] = Eterna round: R95, input ligand: microRNA oligo, concentration not stated
[3] = Eterna round: R95, input ligand: none
[4] = input ligand: microRNA oligo, concentration not stated

Sequence	apparent KD of MS2 coat protein (input ligand: FMN 200 uM) [nM]	apparent KD of MS2 coat protein (input ligand: none) [nM]	apparent KD of MS2 coat protein [1] [nM]	apparent KD of MS2 coat protein [2] [nM]	apparent KD of MS2 coat protein [3] [nM]	apparent KD of MS2 coat protein [4] [nM]
AUUGACUGAGGAUAUUGUACUGCUGACAUGAGGAUCACCCAUGUAUGUUAACUCGGCCGUCGAGAAGGCAGAAAUG [BotMod 21 - Jieux - Exclusion 5] (Eterna round: R97, puzzle: Exclusion 5)	18.4	34.8				
AAAACUAACACGAAAGUGUUAGAAUAAUAAGCUUGUGGUACAUGAGGAUCACCCAUGUCCUCAUAAGCUCGUCUUAU [Mat - Sensor v3 - Turn-off var 2 - D45] (puzzle: Sensor v3, turn-off variant 2)			28	46.4	25.8	
AGUAACUAUCACGAAAGUGAUAGUUACACAAGUGAAUAAACAUGAGGAUCACCCAUGUCCUCAUUUGCUCGUUUUAU [Sensor 3 - 17] (puzzle: Sensor v3, turn-off variant 2)			486	553	400	
ACAGUUCUGCAAGGAUAUCGUCCUAGUUUGUUUCGAGAAGGUGCUUUUGUUUUUUCUUUGUGUUGACAUGAGGAUCACCCAUGU [JR_ExcNG1_Sub052] (Eterna round: R96, puzzle: Exclusion NG 1)	20.3	28.7				20.6
UAUUUGUCAGGAUAUGAGUCGUAGAACAAUAGUACUACGUCUCAGAAGGGACAUGAGGAUCACCCAUGUGCCUC [Fiskers Ex 4 Super Stable 44 mod 29] (Eterna round: R96, puzzle: Exclusion 4)	276	28.9				24.3
ACUUAUCAUGUAGGAUAUGCGUGGCGAAGCUAUGCAGAAGGACAUGAGGAUCACCCAUGUUUUAGCGUCUGCGUACAGAUGCGU [JL ENG1 1.45] (Eterna round: R96, puzzle: Exclusion NG 1)						39
UGCUACGGAGGAUAUACAUGAGGAUCACCCAUGUGUGAGAUUUGGCCGAGAGGCCAGUGUAGAAGGCCGUAGCU [jl-ex3-4.19 jl mod] (Eterna round: R97, puzzle: Exclusion 3)	615	193				
GAUACACAUGAGGAUCACCCAUGUUAGGAUAUUAGCGGGAAAGCUGUCAAAACGCCGAUGAGAAGGAACAGGAG [Excls1-IX] (puzzle: Exclusion 1)				31.9		
AAGAAGAAGUAAGGAUAUGAAGAUCUGGUGGUGACAUGAGGAUCACCCAUGUGAAAACAAUAAGAUCAGAAGGUAUAAGAAGAA [AK ExNG2-3.1] (Eterna round: R96, puzzle: Exclusion NG 2)	81	87.9				70.4
CCCAUGUCAGGAUAUCUAAGAGAGGAUCAGCCCUCUCCUCCGGAGAAGGGACAUGAGGAUCACCCAUGUAAAAC [Zasorequ] (puzzle: Exclusion 4)			30.5	145	204	
UUUUAACAUGAGGAUCACCCAUGUGAGGAUAUCGAAAUUUAUAUUAAUAUUAAUAAUUCGAGAAGGCACAUUUU [JMF 21] (puzzle: Exclusion 1)				117		
AAGGAUAGAGGAUAUACAUAGAUACAGAUUCAUGUAGUCCUACAUGAGGAUCACCCAUGUAGAAGGCUAUCCUA [Fiskers Ex 2 - 12] (Eterna round: R96, puzzle: Exclusion 2)	103	18.7				14.3
CUGAGGUAGCGGUCCUAUGACAUGAGGAUCACCCAUGUACCUUGCUUCGAGCUUUUUGCUCGUCUUAUGAUUCUCAG [Mat - Sensor v3 - turn-off var 1 - JL Mod - D32] (puzzle: Sensor v3, turn-off variant 1)			114	405	162	
AAAUAGCUAGAGGAUAUUGGAUAGGAUUUACUACGAGAAGGUUAGACAUGAGGAUCACCCAUGUUGUGUUGGGA [EX6 #18] (Eterna round: R97, puzzle: Exclusion 6)	55.2	53.4				
GUACUGACAGGAUAUACAUGAGGAUCACCCAUGUGCCCUUAAAGAUGCAAAGCAUCAAGUAGAAGGGUCUGUAC [Omei Ex3 Model Bachelor's Dilema v21] (Eterna round: R97, puzzle: Exclusion 3)	53	40.5				
GGAUCGAAUGUGAGGAUAUACCUAUGGAUACAUAGGUAGAAGGCACAUGAGGAUCACCCAUGUCCUAACGGUCC [Eli bmx4 4.14] (Eterna round: R97, puzzle: Brourd's mod of Exclusion 4)	479	347				
UUUCAUCAUGUAGGAUAUGUGUGGCGAAGCUAUACAGAAGGACAUGAGGAUCACCCAUGUUCUUGCGUCUGCGUACAGAUGCAA [14th something] (Eterna round: R96, puzzle: Exclusion NG 1)	348	43.3				33.1
AUCAUGUGAGGAUAUGUGAUCAACCUUCUAUAUAGAUGAUGACAGAAGGCACAUGAGGAUCACCCAUGUAGAUC [Ex4 - 3 - 20] (puzzle: Exclusion 4)				45.1		
GAUUGACAUGAGGAUCACCCAUGUGAGGAUAUCGGCCGGACCUUGUUAGCUUCCAUCGCGAGAAGGUACAUAGG [Exclusion 1 V34] (puzzle: Exclusion 1)				16.9		
UGAGGACAUGAGGAUCACCCAUGUAAGGAUAUGCGGAGAGCUUGGAGAGGUUGAGGAGGCAGAAGGUACAGGAC [JR_Exclu1_Sub048] (puzzle: Exclusion 1)			47.7	48.3	57	
GCUCGUGGGCAAGGAUAUCCUACGCUGUUCUGGUUCGUGUCUGUCACAUGAGGAUCACCCAUGUGGGAGAAGGUGCACCAGGGU [Design 51] (Eterna round: R96, puzzle: Exclusion NG 2)	10.8	14				9.67
CUCAUGUGAGGAUAUGAGUUAGGGCGAGAGCCCUAUGAAAAUUAGAAGGCACAUGAGGAUCACCCAUGUGAGAA [Rerige] (Eterna round: R97, puzzle: Exclusion 4)	211	169				
AGGAUACGAGGAUAUACGCGGAGACCUCAGGGUCUACAAACACAUGAGGAUCACCCAUGUAGAAGGCGUACCAG [Eternabot (Original) Solution 11] (Eterna round: R97, puzzle: Exclusion 2)	394	42				
GAGAAUUUAUAGGAUAUCGUAUGGAUAAUUUAACGAGAAGGAUGAACAUGAGGAUCACCCAUGUGGUAUCAUGG [JL-ex6-3.14] (puzzle: Exclusion 6)			270	280	247	
UUGUACAUAGGAUAUAGUUGUUUGUACAUGAGGAUCACCCAUGUUAUGUAUGUUUUGUUUCUAGAAGGAUGUUGAU [JR_E5_Sub003] (puzzle: Exclusion 5)				47.1		
CACCGUUACAGAGGAUAUGUUACAUGAGGAUCACCCAUGUAAUAAAUGAGAAUUUCGAAUGUAAUACAGAAGGCUGGAAUCGGC [Ostracism 75 - Jieux - Exclusion NG 2] (Eterna round: R96, puzzle: Exclusion NG 2)	38.3	21.3				15.8
